# Results: publication PMC8005036 (Vaccines, 2021)
# B1: LS-SpyTag (Aquifex aeolicus lumazine synthase multimeric protein scaffold particle with SpyTag) (other)
# chain: MQIYEGKLTAEGLRFGIVASRFNHALVDRLVEGAIDAIVRHGGREEDITLVRVPGSWEIPVAAGELARKEDIDAVIAIGVLIRGATPHFDYIASEVSKGLANLSLELRKPITFGVITADTLEQAIERAGTKHGNKGWEAALSAIEMANLFKSLRGGGGSGGGGSGGGGSAHIVMVDAYKPTK
# notes: also called LS-ST; LS-MPSPs; copies: 60
# Molecular target: the molecule itself
# Experiment: negative-stain transmission elect
protein,measurement,value
B1,binding result,binds
